Test results reported in patent US20140308201A1 (Novartis, published 2014).

T1: Human FGFR2 IIIb D1-3 (human)
T1 construct: Extracellular domains D1-3 with C-terminal tag, made in HEK293T; also called recombinant human FGFR2 IIIb; hFGFR2
T1 chain: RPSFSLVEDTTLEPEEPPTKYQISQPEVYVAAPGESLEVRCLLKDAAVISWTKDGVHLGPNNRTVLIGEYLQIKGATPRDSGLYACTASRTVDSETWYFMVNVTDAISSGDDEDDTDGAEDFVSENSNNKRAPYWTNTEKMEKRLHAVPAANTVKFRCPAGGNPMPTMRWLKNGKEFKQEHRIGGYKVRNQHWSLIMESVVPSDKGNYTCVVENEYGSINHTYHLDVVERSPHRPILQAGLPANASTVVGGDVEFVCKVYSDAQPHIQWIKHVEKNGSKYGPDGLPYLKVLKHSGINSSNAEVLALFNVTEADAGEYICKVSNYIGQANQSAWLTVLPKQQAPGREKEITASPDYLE

T2: Cynomolgus monkey FGFR2 IIIb D1-3 (cynomolgus monkey)
T2 construct: also called Cyno FGFR2 IIIb
T2 chain: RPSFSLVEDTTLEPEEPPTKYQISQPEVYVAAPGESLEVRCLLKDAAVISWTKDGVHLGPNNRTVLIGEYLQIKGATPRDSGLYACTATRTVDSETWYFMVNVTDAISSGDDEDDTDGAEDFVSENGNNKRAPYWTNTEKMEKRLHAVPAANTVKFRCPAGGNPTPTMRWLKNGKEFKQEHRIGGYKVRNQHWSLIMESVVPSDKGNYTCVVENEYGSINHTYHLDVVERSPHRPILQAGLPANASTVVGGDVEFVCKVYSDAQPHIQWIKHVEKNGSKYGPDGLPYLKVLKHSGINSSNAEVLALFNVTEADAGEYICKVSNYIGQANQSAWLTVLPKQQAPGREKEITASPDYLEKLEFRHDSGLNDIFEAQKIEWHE

T3: FGFR2 D2-D3 Construct (human)
T3 construct: E. coli made, not glycosylated; also called E. Coli. derived FGFR2D2-D3 protein
T3 chain: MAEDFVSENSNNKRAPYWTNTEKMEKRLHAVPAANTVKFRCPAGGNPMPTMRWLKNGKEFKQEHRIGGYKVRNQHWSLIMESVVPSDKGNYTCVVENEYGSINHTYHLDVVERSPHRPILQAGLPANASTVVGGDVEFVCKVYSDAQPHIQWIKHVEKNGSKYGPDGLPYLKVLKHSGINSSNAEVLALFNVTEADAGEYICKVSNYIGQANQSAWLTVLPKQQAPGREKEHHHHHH

T4: FGFR2 D2 (human)
T4 construct: trypsin was added to the complex before crystallisation; also called FGFR D2; human FGFR2 ECD fragment (domain 2)
T4 chain: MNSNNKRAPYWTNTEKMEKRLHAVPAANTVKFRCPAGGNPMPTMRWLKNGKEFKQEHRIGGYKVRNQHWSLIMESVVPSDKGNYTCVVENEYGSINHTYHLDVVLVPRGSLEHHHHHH

B1: mAb12433 (antibody, human IgG1, kappa, V domains shown)
VH: QVQLVQSGAEVKKPGESLKISCKGSGYSFTNYYIHWVRQMPGKGLEWMGAIYPDNSDTTYSPSFQGQVTISADKSISTAYLQWSSLKASDTAMYYCARGADIWGQGTLVTVSS
VL: DIQMTQSPSSLSASVGDRVTITCRASQDIDPYLSNWYQQKPGKAPKLLIYDASNLQSGVPSRFSGSGSGTDFTLTISSLQPEDFATYYCQQTTSHPYTFGQGTKVEIKR
notes: HuCAL human IgG1
B2: 12425 Fab (Fab, V domains shown)
VH: QVQLLESGGGLVQPGGSLRLSCAASGFTFSDYAMSWVRQAPGKGLEWVSVIEGDGSYTHYADSVKGRFTISRDNSKNTLYLQMNSLRAEDTAVYYCAREKTYSSAFDYWGQGTLVTVSS
VL: DIQMTQSPSSLSASVGDRVTITCRASQDISSDLNWYQQKPGKAPKLLIYDASNLQSGVPSRFSGSGSGTDFTLTISSLQPEDFAVYYCQQHYSPSHTFGQGTKVEIKR

How the values were obtained:
[1] = molecular target: T1, Human FGFR2 IIIb D1-3; experiment: SPR Biacore, method as Example 2
Procedure: (§1) For kinetic measurements, experiments were performed in which the antibodies were immobilized to the sensor chip surface and the ability of the FGFR proteins described above listed in Table 1 to bind in free solution was determined Briefly, 50 μg/ml of anti-human Fc antibody at pH 4.75 was immobilized on a CM5 sensor chip through amine coupling at flow rate of 10 μl/minute on all four flow cells to reach 6000 RUs. […] Subsequently, 0.078-100 nM of FGFR receptors, diluted in a 2-fold series, were injected at a flow rate of 80 μl/min for 7 min over both reference and test flow cells. Dissociation of the binding was followed for 10 min using HBS-EP⁺ supplemented with 0.5 mg/ml of BSA and 10 μg/ml heparin as running buffer. After each injection cycle, the chip surface was regenerated with 10 mM glycine, pH 2.0 at 60 μl/min for 70 s.

[2] = molecular target: T1, Human FGFR2 IIIb D1-3; experiment: SPR Biacore, method as Example 2
Procedure: as §1

[3] = molecular target: T5, Mouse FGFR2 IIIb D1-3 (mouse); experiment: SPR Biacore, method as Example 2
T5 construct: Extracellular domains with C-terminal tag
Procedure: as §1

[4] = molecular target: T6, Rat FGFR2 IIIb D1-3 (rat); experiment: SPR Biacore, method as Example 2
T6 construct: Extracellular domains with C-terminal tag
T6 sequence (P21803 other isoform, or with tags, fused parts or gaps): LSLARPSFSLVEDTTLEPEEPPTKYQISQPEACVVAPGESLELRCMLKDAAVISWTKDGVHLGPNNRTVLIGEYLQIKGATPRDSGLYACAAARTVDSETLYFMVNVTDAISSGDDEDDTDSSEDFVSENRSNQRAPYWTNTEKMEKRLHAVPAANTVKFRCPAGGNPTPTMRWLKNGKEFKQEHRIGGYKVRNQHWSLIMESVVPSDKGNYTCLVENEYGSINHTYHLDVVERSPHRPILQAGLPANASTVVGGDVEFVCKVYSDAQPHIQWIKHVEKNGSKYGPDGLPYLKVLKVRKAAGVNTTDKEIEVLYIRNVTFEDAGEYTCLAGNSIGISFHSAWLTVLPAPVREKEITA
Procedure: as §1

[5] = molecular target: T2, Cynomolgus monkey FGFR2 IIIb D1-3; experiment: SPR Biacore, method as Example 2
Procedure: as §1

[6] = molecular target: T3, FGFR2 D2-D3 Construct; experiment: HDx-MS, antigen incubated 30 min with antibody
Procedure: The epitope mapping experiments described in this example were performed on a Waters HDx-MS platform, which includes a LEAP autosampler, nanoACQUITY UPLC System, and Synapt G2 mass spectrometer. The studies were automated by a LEAP autosampler operated by the LeapShell software, which performed initiation of the deuterium exchange reaction, reaction time control, quench reaction, injection onto the UPLC system and digestion time control. The Leap autosampler was equipped with two temperature controlled stacks maintained at 25° C. for HDx reaction and maintained at 2° C. for storage of protein and quench solution, respectively. Triplicate control experiments were carried out on antigen at a deuterium exchange time of 25 minutes. HDX was quenched with quenching buffer (6 M urea and 1 M TCEP pH=2.5). […] Triplicate experiments were carried out on antigen-mAb complex just as the control experiments except in these experiments the antigen in incubated for 30 min with the antibody at 25° C. prior to deuterium exchange.

[7] = molecular target: T1, Human FGFR2 IIIb D1-3; experiment: SPR Biacore, IgG captured via anti-human Fc, soluble FGFR as analyte
Procedure: (§2) Affinity of the antibodies to FGFR2 species orthologues was determined using Biacore technology using a Biacore T100 instrument (GE Systems) and with CM5 sensor chips.
as §1

[8] = molecular target: T5, Mouse FGFR2 IIIb D1-3; experiment: as above
Procedure: as §2, §1

[9] = molecular target: T6, Rat FGFR2 IIIb D1-3; experiment: as above
Procedure: as §2, §1

[10] = molecular target: T2, Cynomolgus monkey FGFR2 IIIb D1-3; experiment: as above
Procedure: as §2, §1

[11] = molecular target: T4, FGFR2 D2; experiment: complex purified by size exclusion chromatography and crystallised
Procedure: Peak fractions were analyzed by SDS-PAGE and LCMS.
Crystals were grown by sitting drop vapor diffusion. In detail, 0.1 μl of protein was mixed with 0.1 μl of reservoir solution which contains 0.1 M tri-sodium citrate dihydrate pH 5.0, 20% (w/v) PEG6000; and the drop was equilibrated against 45 μl of the same reservoir solution at 20° C.

| Binder | Kd [1] | Kd [2] | Kd [3] | Kd [4] | Kd [5] | binding result [6] | Kd [7] | Kd [8] | Kd [9] | Kd [10] | binding result [11] |
| --- | --- | --- | --- | --- | --- | --- | --- | --- | --- | --- | --- |
| B1 | 5.6 nM | 5.6 nM | 2.2 nM | 3.7 nM | 1.7 nM | binds | 5.6 nM | 8 nM | 12 nM | 12 nM |  |
| B2 |  |  |  |  |  |  |  |  |  |  | binds |
